Measured values taken from patent publication US20220396633A1 (MABPRO A S, published 2022).
Changes are numbered by the printed parent chain.

B1: CA9hu-2_HC1LC5 (antibody, V domains shown)
VH: EVQLVESGGGLVQPGGSLKLSCAASGFTFNTNAMHWVRQASGKGLEWVGRIRSKSNNYTTYYADSVKDRFTISRDDSKNTAYLQMNSLKTEDTAVYYCVCGSWFAYWGQGTLVTVSS
VL: DIVMTQSPDSLAVSLGERATINCKSSQSLLNSSNQKNYLAWYQQKPGQPPKLLIYFTSTRQSGVPDRFSGSGSGTDFTLTISSLQAEDVAVYYCQQHYSIPLTFGQGTKLEIK
notes: Humanized variant of IV/18; VH in-frame with human IgG constant domain (allotype G1m17,1), VL in-frame with human kappa constant domain (allotype Km3)
B2: CA9hu-2_HC3LC3 (antibody, V domains shown)
VH: QVQLVESGGGVVQPGGSLRLSCAASGFTFNTNAMHWVRQAPGRGLEWVARIRSKSNNYTTYYADSVKDRFTISRDNSKNTLYLQVNSLRAEDTAVYYCVCGSWFAYWGQGTLVTVSS
VL: B1 VL with V3Q, Y93F, L110V
notes: as for B1
B3: CA9hu-2_HC3LC4 (antibody, V domains shown)
VH: B2 VH
VL: B1 VL with Y42F, L52V, S69T
notes: as for B1
B4: CA9hu-2_HC3LC2 (antibody, V domains shown)
VH: B2 VH
VL: B1 VL with Y42F, K51N, L53V, S82N, Y93F, K109Q, L110V
notes: as for B1
B5: CA9hu-2_HC3LC1 (antibody, V domains shown)
VH: B2 VH
VL: B1 VL with I2V, A19V, P49S
notes: as for B1
B6: CA9hu-2_HC4LC2 (antibody, V domains shown)
VH: B2 VH with Q1E, G16R, R43K, V85M
VL: B1 VL with Y42F, K51N, L53V, S82N, Y93F, K109Q, L110V
notes: as for B1
B7: CA9hu-2_HC2LC1 (antibody, V domains shown)
VH: B1 VH with N79S
VL: B1 VL with I2V, A19V, P49S
notes: as for B1
B8: CA9hu-2_HC3LC5 (antibody, V domains shown)
VH: B2 VH
VL: B1 VL
notes: as for B1
B9: CA9hu-2_HC5LC5 (antibody, V domains shown)
VH: B1 VH with L112T
VL: B1 VL
notes: as for B1
B10: CA9hu-2_HC1LC2 (antibody, V domains shown)
VH: B1 VH
VL: B1 VL with Y42F, K51N, L53V, S82N, Y93F, K109Q, L110V
notes: as for B1
B11: CA9hu-2_HC4LC4 (antibody, V domains shown)
VH: B2 VH with Q1E, G16R, R43K, V85M
VL: B1 VL with Y42F, L52V, S69T
notes: as for B1
B12: CA9hu-2_HC2LC3 (antibody, V domains shown)
VH: B1 VH with N79S
VL: B1 VL with V3Q, Y93F, L110V
notes: as for B1
B13: CA9hu-2_HC5LC1 (antibody, V domains shown)
VH: B1 VH with L112T
VL: B1 VL with I2V, A19V, P49S
notes: as for B1
B14: CA9hu-2_HC2LC2 (antibody, V domains shown)
VH: B1 VH with N79S
VL: B1 VL with Y42F, K51N, L53V, S82N, Y93F, K109Q, L110V
notes: as for B1
B15: CA9hu-2_HC1LC4 (antibody, V domains shown)
VH: B1 VH
VL: B1 VL with Y42F, L52V, S69T
notes: as for B1
B16: CA9hu-2_HC5LC3 (antibody, V domains shown)
VH: B1 VH with L112T
VL: B1 VL with V3Q, Y93F, L110V
notes: as for B1
B17: CA9hu-2_HC4LC3 (antibody, V domains shown)
VH: B2 VH with Q1E, G16R, R43K, V85M
VL: B1 VL with V3Q, Y93F, L110V
notes: as for B1
B18: CA9hu-2_HC2LC5 (antibody, V domains shown)
VH: B1 VH with N79S
VL: B1 VL
notes: as for B1
B19: CA9hu-2_HC5LC4 (antibody, V domains shown)
VH: B1 VH with L112T
VL: B1 VL with Y42F, L52V, S69T
notes: as for B1
B20: CA9hu-2_HC5LC2 (antibody, V domains shown)
VH: B1 VH with L112T
VL: B1 VL with Y42F, K51N, L53V, S82N, Y93F, K109Q, L110V
notes: as for B1
B21: CA9hu-2_HC2LC4 (antibody, V domains shown)
VH: B1 VH with N79S
VL: B1 VL with Y42F, L52V, S69T
notes: as for B1
B22: CA9hu-2_HC1LC3 (antibody, V domains shown)
VH: B1 VH
VL: B1 VL with V3Q, Y93F, L110V
notes: as for B1
B23: CA9hu-2_HC1LC1 (antibody, V domains shown)
VH: B1 VH
VL: B1 VL with I2V, A19V, P49S
notes: as for B1
B24: CA9hu-2_HC4LC1 (antibody, V domains shown)
VH: B2 VH with Q1E, G16R, R43K, V85M
VL: B1 VL with I2V, A19V, P49S
notes: as for B1

Each binder was assayed against CA IX-positive antigen (protein extract of C-33a_CA IX cells) (human, UniProt Q16790 38-459) (assay: ELISA, antibody 5 ug/ml on coated protein extract of C-33a_CA IX cells versus C-33a_neo).
Description: To evaluate the antigen-binding specificity, all twenty-five humanized variants of CA9hu-2 were subjected to enzyme-linked immunosorbent assay (ELISA) using either CA IX-positive or CA IX-negative antigen. Antigens were prepared from stably transfected C-33a cell line expressing CA IX (C-33a_CA IX) and parental mock-transfected C-33a cells without CA IX expression (C-33a_neo).
Proteins were extracted from the cell monolayer with RIPA lysis buffer (0.1% deoxycholate, 1% Triton X-100 and protease inhibitor cocktail in PBS). Protein concentrations were determined by bicinchoninic acid assay (ThermoFisher Scientific, Waltham, Mass. USA) according to the manufacturer's instructions. Protein extracts were diluted to final concentration 0.2 mg/ml in PBS. Protein concentration of antigen samples used in screening of antigen-antibody specific interaction tested by ELISA meets the requirements for low detergent content that could otherwise interfere throughout the analysis. 50 μl of either CA IX-positive or CA IX-negative antigen was coated on the surface of microplate wells overnight at 37° C. After washing with PBS-T 0.05% Tween-20 in PBS pH7.2, 50 μl of all humanized variants of CA9hu-2 (diluted to concentration 5 μg/ml in 10% FCS in PBS-T) were added and incubated for 2 h at room temperature. Peroxidase-labeled swine anti-human IgG (diluted 1:5000 in 10% FCS in PBS-T; Sigma-Aldrich, St. Louis, Mo. USA) was used as detector. Parental IV/18 antibody (marked as “mouse Ab”) as well as chimeric HC0LC0 antibody (having the murine variable domains and the human Ig constant domains) were used as reference samples. Results are expressed as a fold of induction and are calculated as O.D. values of absorbance measured at 492 nm from CA IX-positive antigen/O.D. values of absorbance measured at 492 nm from CA IX-negative antigen.

Question: Does B1 bind?
Answer: Result: binds

Question: Does B2 bind?
Answer: Result: binds

Question: Does B3 bind?
Answer: Result: binds

Question: Does B4 bind?
Answer: Result: binds

Question: Does B5 bind?
Answer: Result: binds

Question: Does B6 bind?
Answer: Result: binds

Question: Does B7 bind?
Answer: Result: binds

Question: Does B8 bind?
Answer: Result: binds

Question: Does B9 bind?
Answer: Result: binds

Question: Does B10 bind?
Answer: Result: binds

Question: Does B11 bind?
Answer: Result: binds

Question: Does B12 bind?
Answer: Result: binds

Question: Does B13 bind?
Answer: Result: binds

Question: Does B14 bind?
Answer: Result: binds

Question: Does B15 bind?
Answer: Result: binds

Question: Does B16 bind?
Answer: Result: binds

Question: Does B17 bind?
Answer: Result: binds

Question: Does B18 bind?
Answer: Result: binds

Question: Does B19 bind?
Answer: Result: binds

Question: Does B20 bind?
Answer: Result: binds

Question: Does B21 bind?
Answer: Result: binds

Question: Does B22 bind?
Answer: Result: binds

Question: Does B23 bind?
Answer: Result: binds

Question: Does B24 bind?
Answer: Result: binds
